The values below are quoted from earlier work in article PMC3218206 (Chemical biology & drug design, 2011).

As usually defined, the Kd is the free concentration of one partner at which half of the binding sites on the other are occupied at equilibrium, for simple one-to-one binding.

Series [1] deals with Nrf2 14mer peptide (Homo sapiens). The series can be described thus: ITC.

For the substance Keap1 (from UniProt Q14145), the dissociation constant Kd in series [1] is 20 nM.
Take LQLDEETGEFLPIQ: the “displacement of Nrf2 from Keap1-Nrf2 complex” value in the series on Keap1-Nrf2 complex was “effectively”.
